Measurements taken from patent US20260242419A1, “A CYCLIC PEPTIDE FOR TRAPPING INTERLEUKIN-1 BETA” (Merck Sharp & Dohme LLC, priority 2023, published 2026).
Starred links: 1 amine or outer side, 2 acyl side, 3 side chain; linkers in the order of their positions; H or OH if unused. Non-standard residues stand in square brackets, D forms with d. AlaPyrim4CONH2 = (2S)-2-amino-3-(2-carbamoylpyrimidin-5-yl)propanoic acid, NC(=O)c1ncc(C[C@H](N[*:1])C(=O)[*:2])cn1; SbOH4Pal = (2S,3S)-2-amino-3-hydroxy-3-(4-pyridyl)propanoic acid, O=C([C@@H](N[*:1])[C@@H](O[*:3])c1ccncc1)[*:2]; sbOH4Pal = (2S,3S)-2-amino-3-hydroxy-3-(4-pyridyl)propanoic acid, O=C([C@@H](N[*:1])[C@@H](O[*:3])c1ccncc1)[*:2]; RbOH4Pal = (2S,3R)-2-amino-3-hydroxy-3-(4-pyridyl)propanoic acid, O=C([C@@H](N[*:1])[C@H](O[*:3])c1ccncc1)[*:2]; AlaPiperazAc = (S)-3-(4-acetylpiperazin-1-yl)-2-aminopropanoic acid, CC(=O)N1CCN(C[C@H](N[*:1])C(=O)[*:2])CC1; daMeSMe = (2R)-2-amino-3-methoxy-2-methyl-propanoic acid, COC[C@@](C)(N[*:1])C(=O)[*:2]; alTOMe = (2S,3S)-2-amino-3-methoxy-butanoic acid, CO[C@@H](C)[C@H](N[*:1])C(=O)[*:2]; ThrOMe = (2S,3R)-2-amino-3-methoxy-butanoic acid, CO[C@H](C)[C@H](N[*:1])C(=O)[*:2]; Ala(2-carboxypyrimidin-5-yl) = N[C@@H](Cc1cnc(C(=O)O)nc1)C(=O)O; dPro(4R-(4-pyridylmethyl)) = O=C(O)[C@H]1C[C@@H](Cc2ccncc2)CN1; Trp(βS-Me,4-F) = C[C@@H](c1c[nH]c2cccc(F)c12)[C@H](N)C(=O)O; Bip(4'-COOH) = N[C@@H](Cc1ccc(-c2ccc(C(=O)O)cc2)cc1)C(=O)O; dPro(4R-Bzl(4-F)) = O=C(O)[C@H]1C[C@@H](Cc2ccc(F)cc2)CN1; dPro(3S-(4-F-Bn)) = O=C(O)[C@@H]1NCC[C@@H]1Cc1ccc(F)cc1; Trp(4-Cl) = N[C@@H](Cc1c[nH]c2cccc(Cl)c12)C(=O)O; Ala(pyrimidin-5-yl) = N[C@@H](Cc1cncnc1)C(=O)O; Phe(4-COOH) = N[C@@H](Cc1ccc(C(=O)O)cc1)C(=O)O; Trp(4-F) = N[C@@H](Cc1c[nH]c2cccc(F)c12)C(=O)O; Bip = N[C@@H](Cc1ccc(-c2ccccc2)cc1)C(=O)O; Pro(cis-4-F) = O=C(O)[C@@H]1C[C@H](F)CN1; Met(O2) = CS(=O)(=O)CC[C@H](N)C(=O)O; d(αMeF) = C[C@@](N)(Cc1ccccc1)C(=O)O; Dap(CONH2) = NC(=O)NC[C@H](N)C(=O)O; hTyr = N[C@@H](CCc1ccc(O)cc1)C(=O)O; cisHyp = O=C(O)[C@@H]1C[C@H](O)CN1; d(αMeD) = C[C@@](N)(CC(=O)O)C(=O)O; 4Pal = N[C@@H](Cc1ccncc1)C(=O)O; aThr = C[C@H](O)[C@H](N)C(=O)O; NMeDab = CN[C@@H](CCN)C(=O)O; dDab = NCC[C@@H](N)C(=O)O; dDap = NC[C@@H](N)C(=O)O; Dab = NCC[C@H](N)C(=O)O; Nva = CCC[C@H](N)C(=O)O; Aib = CC(C)(N)C(=O)O

Target: Recombinant human IL-1β (BioLegend 579404) (human, UniProt P01584 117-269)
Experiment: cell-based or functional assay

MRC5 IC50 | Binder
0.013 nM | cyclo([Bip(4'-COOH)][4Pal][Phe(4-COOH)]G[Pro(cis-4-F)][Trp(βS-Me,4-F)][Aib]SW[d(αMeD)][Nva]Q[Dab]G[dPro(4R-(4-pyridylmethyl))]) (ring closure inferred) [SEQ ID NO 253]
0.013 nM | cyclo([Bip(4'-COOH)][4Pal][Phe(4-COOH)]G[Pro(cis-4-F)][Trp(βS-Me,4-F)][Aib]SW[Aib][RbOH4Pal]Q[Dab]G[dPro(4R-Bzl(4-F))]) (ring closure inferred) [SEQ ID NO 273]
0.013 nM | cyclo([Bip(4'-COOH)][4Pal][Phe(4-COOH)]G[Pro(cis-4-F)][Trp(βS-Me,4-F)][Aib]SW[daMeSMe][Ala(pyrimidin-5-yl)]Q[Dab]G[dPro(4R-(4-pyridylmethyl))]) (ring closure inferred) [SEQ ID NO 260]
0.013 nM | cyclo([Bip(4'-COOH)][4Pal][Phe(4-COOH)]G[Pro(cis-4-F)][Trp(βS-Me,4-F)][Aib]S[Trp(4-Cl)][d(αMeD)][Ala(pyrimidin-5-yl)]Q[Dab]G[dPro(4R-(4-pyridylmethyl))]) (ring closure inferred) [SEQ ID NO 251]
0.014 nM | cyclo([Bip(4'-COOH)][4Pal][Phe(4-COOH)]G[Pro(cis-4-F)][Trp(βS-Me,4-F)][Aib]SW[d(αMeF)]DQ[Dab]G[dPro(4R-(4-pyridylmethyl))]) (ring closure inferred) [SEQ ID NO 259]
0.023 nM | cyclo([Bip(4'-COOH)][4Pal][Phe(4-COOH)]G[Pro(cis-4-F)][Trp(βS-Me,4-F)][Aib]SW[Aib][Ala(pyrimidin-5-yl)]Q[Dap(CONH2)]G[dPro(4R-(4-pyridylmethyl))]) (ring closure inferred) [SEQ ID NO 270]
0.014 nM | cyclo([Bip][4Pal][Phe(4-COOH)]G[Pro(cis-4-F)][Trp(βS-Me,4-F)][Aib]SW[Aib][Ala(2-carboxypyrimidin-5-yl)]Q[Dab]G[dPro(4R-(4-pyridylmethyl))]) (ring closure inferred) [SEQ ID NO 269]
0.019 nM | cyclo([Bip(4'-COOH)][4Pal][Phe(4-COOH)]G[Pro(cis-4-F)][Trp(βS-Me,4-F)][Aib]SW[Aib][Met(O2)]Q[Dab]G[dPro(4R-(4-pyridylmethyl))]) (ring closure inferred) [SEQ ID NO 266]
0.013 nM | cyclo([Bip(4'-COOH)][4Pal][Phe(4-COOH)]G[Pro(cis-4-F)][Trp(βS-Me,4-F)][Aib]S[Trp(4-F)][d(αMeD)][Ala(pyrimidin-5-yl)]Q[Dab]G[dPro(4R-(4-pyridylmethyl))]) (ring closure inferred) [SEQ ID NO 252]
0.028 nM | cyclo([Bip][4Pal][Phe(4-COOH)]G[Pro(cis-4-F)][Trp(βS-Me,4-F)][Aib]SW[d(αMeD)][dDab]Q[Dab]G[dPro(4R-(4-pyridylmethyl))]) (ring closure inferred) [SEQ ID NO 248]
0.02 nM | cyclo([Bip(4'-COOH)][4Pal][Phe(4-COOH)]G[Pro(cis-4-F)][Trp(βS-Me,4-F)][Aib]SW[d(αMeF)]EQ[Dab]G[dPro(4R-(4-pyridylmethyl))]) (ring closure inferred) [SEQ ID NO 258]
0.017 nM | cyclo([Bip(4'-COOH)][4Pal][Phe(4-COOH)]G[Pro(cis-4-F)][Trp(βS-Me,4-F)][Aib]SW[d(αMeD)][sbOH4Pal]Q[Dab]G[dPro(3S-(4-F-Bn))]) (ring closure inferred) [SEQ ID NO 263]
0.03 nM | cyclo([Bip][4Pal][Phe(4-COOH)]G[Pro(cis-4-F)][Trp(βS-Me,4-F)][Aib]SW[d(αMeD)][dDab]Q[Dap(CONH2)]G[dPro(4R-(4-pyridylmethyl))]) (ring closure inferred) [SEQ ID NO 247]
0.014 nM | cyclo([Bip(4'-COOH)][4Pal][Phe(4-COOH)]G[Pro(cis-4-F)][Trp(βS-Me,4-F)][Aib]SW[Aib][Ala(2-carboxypyrimidin-5-yl)]Q[Dab]G[dPro(4R-(4-pyridylmethyl))]) (ring closure inferred) [SEQ ID NO 268]
0.026 nM | cyclo([Bip(4'-COOH)][RbOH4Pal][Phe(4-COOH)]G[Pro(cis-4-F)][Trp(βS-Me,4-F)][Aib]SW[Aib][Ala(pyrimidin-5-yl)]Q[Dab]G[dPro(4R-Bzl(4-F))]) (ring closure inferred) [SEQ ID NO 274]
0.013 nM | cyclo([Bip(4'-COOH)][4Pal][Phe(4-COOH)]G[Pro(cis-4-F)][Trp(βS-Me,4-F)][Aib]SW[d(αMeD)][alTOMe]Q[Dab]G[dPro(4R-(4-pyridylmethyl))]) (ring closure inferred) [SEQ ID NO 254]
0.018 nM | cyclo([Bip(4'-COOH)][4Pal][Phe(4-COOH)]G[Pro(cis-4-F)][Trp(βS-Me,4-F)][Aib]SW[Aib][SbOH4Pal]Q[Dab]G[dPro(4R-Bzl(4-F))]) (ring closure inferred) [SEQ ID NO 272]
0.022 nM | cyclo([Bip][4Pal][Phe(4-COOH)]G[Pro(cis-4-F)][Trp(βS-Me,4-F)][Aib]SW[Aib][dD]Q[Dab]G[dPro(4R-(4-pyridylmethyl))]) (ring closure inferred) [SEQ ID NO 265]
0.023 nM | cyclo([Bip(4'-COOH)][4Pal][Phe(4-COOH)]G[Pro(cis-4-F)][Trp(βS-Me,4-F)][Aib]EW[Aib][AlaPiperazAc]QSG[dPro(4R-Bzl(4-F))]) (ring closure inferred) [SEQ ID NO 271]
0.031 nM | cyclo([Bip][4Pal][Phe(4-COOH)]G[Pro(cis-4-F)][Trp(βS-Me,4-F)][Aib]SW[d(αMeD)][dDap]Q[Dap(CONH2)]G[dPro(4R-(4-pyridylmethyl))]) (ring closure inferred) [SEQ ID NO 246]
0.011 nM | cyclo([Bip(4'-COOH)][4Pal][Phe(4-COOH)]G[Pro(cis-4-F)][Trp(βS-Me,4-F)][Aib]SW[d(αMeD)][ThrOMe]Q[Dab]G[dPro(4R-(4-pyridylmethyl))]) (ring closure inferred) [SEQ ID NO 255]
0.017 nM | cyclo([Bip][4Pal][Phe(4-COOH)]G[cisHyp][Trp(βS-Me,4-F)][Aib]SW[d(αMeD)][Ala(pyrimidin-5-yl)]Q[Dab]G[dPro(4R-(4-pyridylmethyl))]) (ring closure inferred) [SEQ ID NO 264]
0.016 nM | cyclo([Bip][4Pal][Phe(4-COOH)]G[Pro(cis-4-F)][Trp(βS-Me,4-F)][Aib]SW[d(αMeD)][dE]Q[Dab]G[dPro(4R-(4-pyridylmethyl))]) (ring closure inferred) [SEQ ID NO 249]
0.012 nM | cyclo([Bip(4'-COOH)][4Pal][Phe(4-COOH)]G[Pro(cis-4-F)][Trp(βS-Me,4-F)][Aib]SW[d(αMeD)][hTyr]Q[Dab]G[dPro(4R-(4-pyridylmethyl))]) (ring closure inferred) [SEQ ID NO 256]
0.02 nM | cyclo([Bip(4'-COOH)][4Pal][Phe(4-COOH)]G[Pro(cis-4-F)][Trp(βS-Me,4-F)][Aib]SW[Aib][Ala(pyrimidin-5-yl)]Q[NMeDab]G[dPro(4R-(4-pyridylmethyl))]) (ring closure inferred) [SEQ ID NO 262]
0.014 nM | cyclo([Bip(4'-COOH)][4Pal][Phe(4-COOH)]G[Pro(cis-4-F)][Trp(βS-Me,4-F)][Aib]SW[Aib][AlaPyrim4CONH2]Q[Dab]G[dPro(4R-(4-pyridylmethyl))]) (ring closure inferred) [SEQ ID NO 267]
0.021 nM | cyclo([Bip(4'-COOH)][4Pal][Phe(4-COOH)]G[Pro(cis-4-F)][Trp(βS-Me,4-F)][Aib]SW[d(αMeF)][aThr]Q[Dab]G[dPro(4R-(4-pyridylmethyl))]) (ring closure inferred) [SEQ ID NO 257]
0.017 nM | cyclo([Bip(4'-COOH)][4Pal][Phe(4-COOH)]G[Pro(cis-4-F)][Trp(βS-Me,4-F)][Aib]SW[daMeSMe][aThr]Q[Dab]G[dPro(4R-(4-pyridylmethyl))]) (ring closure inferred) [SEQ ID NO 261]
0.027 nM | cyclo([Bip][4Pal][Phe(4-COOH)]G[Pro(cis-4-F)][Trp(βS-Me,4-F)][Aib]SW[Aib][dE]Q[Dab]G[dPro(4R-(4-pyridylmethyl))]) (ring closure inferred) [SEQ ID NO 250]
